From PMC9882608, “Structure of an endogenous mycobacterial MCE lipid transporter” (Research Square, 2023) come the findings set out here.

This data set concerns the molecule itself. Put plainly: cryo-EM structure.

One may read the stoichiometry N as the number of molecules, sites or subunits per partner or assembly.

B1: MceG-GFP (MceG, MSMEG_1366, chromosomally tagged with GFP at its C-terminus) (enzyme, UniProt A0QS64 1-360, looked up)
chain: MGVQIDVTGLSKSFGSSKIWEDVTMSIPAGEVSVLLGPSGTGKSVFLKSLIGLLRPERGSIVIDGTDILQCSAKELYEIRTLFGVLFQDGALFGSMNIYDNTAFPLREHTKKSESEIRKIVMEKLDLVGMPNDGHKFPGEISGGMRKRAGLARALVLDPEIILCDEPDSGLDPVRTAYLSQLLIDINAQIDATVLIVTHNINIARTVPDNMGMLFRKQLVMFGPREVLLTSEEPVVKQFLNGRRIGPIGMSEEKDEATAAAEQALVDAGQHDGGVEEIEGVPPQLQATPGMPERKAVARRKARVREILHTLPPAAQAAILEELDRDQPQLSAPTTQTAATAPVENYDDSPTGVIEVPKQA
notes: MceG, ATPase of the MCE ABC transporters, Mycobacterium smegmatis, locus MSMEG_1366; endogenous protein; printed residue numbers run to 360 (residues 1, 256-280 and 326-360 not modelled); also called GFP-tagged MceG; MceG ATPase; not shown: eGFP, C-terminal, kept
In the case of B1, the “stoichiometry N” value was 2.
